# Molecular target: Fyn (UniProt P06241)
# Assay: phosphorylation enrichment, bacterial display (enrichment ratio); higher = better substrate or ligand; peptides without Tyr show the background
# 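Also: 11-residue human phosphosite peptides and single-mutation variants displayed on the E. coli surface, counted by deep sequencing, each peptide's frequency after selection divided by its frequency in the unselected input library; frequency after pTyr selection over input frequency; kinase dosed for 20-30% of maximal phosphorylation in three min.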
# Fyn, sequence (P06241 whole entry, looked up): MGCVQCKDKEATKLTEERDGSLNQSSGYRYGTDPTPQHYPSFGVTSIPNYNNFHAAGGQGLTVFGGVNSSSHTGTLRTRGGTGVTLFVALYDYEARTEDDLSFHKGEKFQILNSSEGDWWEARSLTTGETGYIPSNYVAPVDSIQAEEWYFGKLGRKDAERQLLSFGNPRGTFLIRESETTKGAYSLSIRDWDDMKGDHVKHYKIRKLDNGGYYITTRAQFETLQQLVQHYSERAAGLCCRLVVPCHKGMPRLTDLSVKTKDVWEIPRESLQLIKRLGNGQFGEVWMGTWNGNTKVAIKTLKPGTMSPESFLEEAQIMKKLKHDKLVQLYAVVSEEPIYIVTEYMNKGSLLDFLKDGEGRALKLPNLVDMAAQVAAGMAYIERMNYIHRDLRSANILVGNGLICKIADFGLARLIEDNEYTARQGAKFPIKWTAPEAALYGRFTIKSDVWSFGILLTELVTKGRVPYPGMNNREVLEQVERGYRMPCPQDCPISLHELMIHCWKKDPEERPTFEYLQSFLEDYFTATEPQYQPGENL
row,Sequence,phosphorylation enrichment
1,PVQAAYQKVVD [HBB_Y131_A136D],0.621
2,GEIQEYGAPSD [ABCC1_Y1508],0.506
3,KRIETYFSKNY [PLP1_Y50_L46R],0.374
4,LRTAVYHEILI [CREBBP_Y1450],7.22
5,GGDGSYVSVPL [TNNI3K_Y425_S430L],0.406
6,ADRARYSAFGG [RBM4_Y361],0.41
7,FQKDVYDIPPS [NEDD9_Y177_YF],2.59
8,GEDEPYAEPYA [APBA1_Y183_S184A],0.609
9,FSQQTYCRVSN [ABCD1_Y180_Y181C],0.557
10,TRSYKYLLLSM [NF1_Y491],0.477
11,MSNSAYVKREV [SCN1A_Y1694_F1692S],0.402
12,EIEFLYNENTV [IARS1_Y680],0.479
13,AIKSFYAALID [RYR1_Y2426_M2423K],0.504
14,IVRSLYEDPED [VHL_Y185_L188P],0.455
15,TEFIQYMRRKN [MAX_Y73_YF],0.547
16,NSAFFYKTAEE [CCT6B_Y250_G247A],0.524
17,SYCYRYCCAAR [SUMF1_Y344_R345C],0.43

row,Sequence,phosphorylation enrichment
1,TLSGIYQFNIA [FOXL2_Y81_I84N_YF],4.21
2,NDFGNYNQQPS [HNRNPA2B1_Y306],0.596
3,VKYLGYPPPEI [KDR_Y357_A352V],0.486
4,DFGSGYPNDPK [RNASEH2A_Y210_YF],0.382
5,PGVNYYFRVSA,0.466
6,SWSTSYSGYRY [NKAPL_Y91],0.706
7,QTPVLYTMLDH [MPZ_Y220_A221T],2.02
8,LAARFYNWVSF [FLT4_Y1231_YF],0.51
9,ATARPYRPFII [LRP5_Y1528_YF],0.359
10,VGTKRYVAPEV [ACVRL1_Y375_M376V],0.451
11,SVNCTYSPALN [TP53_Y126_T123N],0.735
12,EHLNRYINDTF [TTLL10_Y446_S448N],0.467
13,EIIPFYGMSTY [FNDC3B_Y175],0.864
14,GVTLLCFGRFN [ADGRD1_Y85_Y85C_YF],0.443
15,FKDGQYWIRGQ [ACSF3_Y466_R471Q],0.477
16,QRRLVYFERGA [RYR1_Y245_G248R_YF],0.584

# Molecular target: FGFR3 (UniProt P22607)
# Sequence (P22607 whole entry, looked up): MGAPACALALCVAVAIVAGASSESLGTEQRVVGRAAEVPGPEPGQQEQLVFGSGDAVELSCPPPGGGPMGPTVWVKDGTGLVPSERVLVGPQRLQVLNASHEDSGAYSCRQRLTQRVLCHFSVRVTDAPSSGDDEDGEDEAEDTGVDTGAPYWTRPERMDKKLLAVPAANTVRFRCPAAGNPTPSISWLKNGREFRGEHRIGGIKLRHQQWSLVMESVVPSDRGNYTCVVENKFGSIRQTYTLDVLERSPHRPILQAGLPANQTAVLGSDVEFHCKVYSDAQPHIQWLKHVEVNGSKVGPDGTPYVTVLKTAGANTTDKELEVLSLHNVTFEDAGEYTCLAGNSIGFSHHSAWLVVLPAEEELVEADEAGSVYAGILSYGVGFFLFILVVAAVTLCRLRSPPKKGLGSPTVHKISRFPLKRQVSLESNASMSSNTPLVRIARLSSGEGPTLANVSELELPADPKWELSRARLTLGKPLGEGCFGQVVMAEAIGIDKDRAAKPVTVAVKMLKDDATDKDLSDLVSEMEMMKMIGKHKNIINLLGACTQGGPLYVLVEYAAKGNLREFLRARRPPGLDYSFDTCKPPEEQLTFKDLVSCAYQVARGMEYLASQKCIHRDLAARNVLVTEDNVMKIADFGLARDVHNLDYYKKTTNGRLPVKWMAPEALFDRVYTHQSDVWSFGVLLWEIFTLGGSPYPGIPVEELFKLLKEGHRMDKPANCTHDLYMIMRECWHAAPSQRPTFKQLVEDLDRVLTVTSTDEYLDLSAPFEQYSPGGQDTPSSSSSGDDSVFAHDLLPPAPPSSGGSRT
# Assay: as above
row,Sequence,phosphorylation enrichment
1,PVQAAYQKVVD [HBB_Y131_A136D],0.515
2,GEIQEYGAPSD [ABCC1_Y1508],0.662
3,KRIETYFSKNY [PLP1_Y50_L46R],0.504
4,LRTAVYHEILI [CREBBP_Y1450],12.1
5,GGDGSYVSVPL [TNNI3K_Y425_S430L],0.573
6,ADRARYSAFGG [RBM4_Y361],0.394
7,FQKDVYDIPPS [NEDD9_Y177_YF],0.559
8,GEDEPYAEPYA [APBA1_Y183_S184A],0.799
9,FSQQTYCRVSN [ABCD1_Y180_Y181C],0.644
10,TRSYKYLLLSM [NF1_Y491],0.624
11,MSNSAYVKREV [SCN1A_Y1694_F1692S],0.46
12,EIEFLYNENTV [IARS1_Y680],0.724
13,AIKSFYAALID [RYR1_Y2426_M2423K],0.628
14,IVRSLYEDPED [VHL_Y185_L188P],0.707
15,TEFIQYMRRKN [MAX_Y73_YF],0.486
16,NSAFFYKTAEE [CCT6B_Y250_G247A],0.696
17,SYCYRYCCAAR [SUMF1_Y344_R345C],0.769

row,Sequence,phosphorylation enrichment
1,TLSGIYQFNIA [FOXL2_Y81_I84N_YF],0.539
2,NDFGNYNQQPS [HNRNPA2B1_Y306],0.493
3,VKYLGYPPPEI [KDR_Y357_A352V],0.626
4,DFGSGYPNDPK [RNASEH2A_Y210_YF],0.579
5,PGVNYYFRVSA,1.01
6,SWSTSYSGYRY [NKAPL_Y91],0.656
7,QTPVLYTMLDH [MPZ_Y220_A221T],3.51
8,LAARFYNWVSF [FLT4_Y1231_YF],1.56
9,ATARPYRPFII [LRP5_Y1528_YF],0.566
10,VGTKRYVAPEV [ACVRL1_Y375_M376V],0.464
11,SVNCTYSPALN [TP53_Y126_T123N],0.725
12,EHLNRYINDTF [TTLL10_Y446_S448N],0.654
13,EIIPFYGMSTY [FNDC3B_Y175],0.709
14,GVTLLCFGRFN [ADGRD1_Y85_Y85C_YF],0.885
15,FKDGQYWIRGQ [ACSF3_Y466_R471Q],0.663
16,QRRLVYFERGA [RYR1_Y245_G248R_YF],0.742

# Molecular target: Jak2 (UniProt O60674)
# Sequence (O60674 whole entry, looked up): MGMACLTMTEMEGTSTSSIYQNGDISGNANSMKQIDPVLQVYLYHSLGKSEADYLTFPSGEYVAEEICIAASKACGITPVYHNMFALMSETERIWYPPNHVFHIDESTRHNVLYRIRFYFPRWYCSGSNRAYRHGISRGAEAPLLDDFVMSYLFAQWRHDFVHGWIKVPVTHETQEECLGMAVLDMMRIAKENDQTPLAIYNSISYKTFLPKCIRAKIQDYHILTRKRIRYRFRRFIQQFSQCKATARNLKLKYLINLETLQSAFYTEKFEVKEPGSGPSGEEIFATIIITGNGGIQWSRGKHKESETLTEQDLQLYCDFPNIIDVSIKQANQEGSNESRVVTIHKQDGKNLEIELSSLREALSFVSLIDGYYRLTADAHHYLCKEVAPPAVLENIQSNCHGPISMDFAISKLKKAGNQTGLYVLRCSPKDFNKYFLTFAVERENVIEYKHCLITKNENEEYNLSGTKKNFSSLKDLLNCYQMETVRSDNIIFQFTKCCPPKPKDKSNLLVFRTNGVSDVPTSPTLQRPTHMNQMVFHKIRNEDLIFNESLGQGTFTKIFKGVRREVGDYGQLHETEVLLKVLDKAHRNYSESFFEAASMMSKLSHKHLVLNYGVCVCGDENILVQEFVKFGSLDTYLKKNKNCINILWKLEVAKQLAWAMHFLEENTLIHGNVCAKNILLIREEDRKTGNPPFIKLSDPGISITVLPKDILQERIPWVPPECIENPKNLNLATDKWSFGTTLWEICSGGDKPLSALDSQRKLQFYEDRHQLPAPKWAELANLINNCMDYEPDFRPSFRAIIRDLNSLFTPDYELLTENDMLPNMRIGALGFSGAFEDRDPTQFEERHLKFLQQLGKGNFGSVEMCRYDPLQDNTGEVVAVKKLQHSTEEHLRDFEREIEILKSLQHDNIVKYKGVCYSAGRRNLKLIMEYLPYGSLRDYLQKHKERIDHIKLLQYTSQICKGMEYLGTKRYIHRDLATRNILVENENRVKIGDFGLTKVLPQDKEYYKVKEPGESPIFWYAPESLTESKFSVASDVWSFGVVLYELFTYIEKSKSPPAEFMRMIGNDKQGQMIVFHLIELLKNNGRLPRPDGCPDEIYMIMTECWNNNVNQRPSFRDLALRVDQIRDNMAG
# Assay: as above
row,Sequence,phosphorylation enrichment
1,PVQAAYQKVVD [HBB_Y131_A136D],0.577
2,GEIQEYGAPSD [ABCC1_Y1508],0.891
3,KRIETYFSKNY [PLP1_Y50_L46R],0.661
4,LRTAVYHEILI [CREBBP_Y1450],3.67
5,GGDGSYVSVPL [TNNI3K_Y425_S430L],0.558
6,ADRARYSAFGG [RBM4_Y361],0.482
7,FQKDVYDIPPS [NEDD9_Y177_YF],0.629
8,GEDEPYAEPYA [APBA1_Y183_S184A],1.33
9,FSQQTYCRVSN [ABCD1_Y180_Y181C],0.764
10,TRSYKYLLLSM [NF1_Y491],0.887
11,MSNSAYVKREV [SCN1A_Y1694_F1692S],0.437
12,EIEFLYNENTV [IARS1_Y680],1.26
13,AIKSFYAALID [RYR1_Y2426_M2423K],0.667
14,IVRSLYEDPED [VHL_Y185_L188P],0.878
15,TEFIQYMRRKN [MAX_Y73_YF],0.594
16,NSAFFYKTAEE [CCT6B_Y250_G247A],0.927
17,SYCYRYCCAAR [SUMF1_Y344_R345C],0.679

row,Sequence,phosphorylation enrichment
1,TLSGIYQFNIA [FOXL2_Y81_I84N_YF],0.696
2,NDFGNYNQQPS [HNRNPA2B1_Y306],0.788
3,VKYLGYPPPEI [KDR_Y357_A352V],0.489
4,DFGSGYPNDPK [RNASEH2A_Y210_YF],0.906
5,PGVNYYFRVSA,1.26
6,SWSTSYSGYRY [NKAPL_Y91],0.741
7,QTPVLYTMLDH [MPZ_Y220_A221T],0.907
8,LAARFYNWVSF [FLT4_Y1231_YF],1.1
9,ATARPYRPFII [LRP5_Y1528_YF],0.589
10,VGTKRYVAPEV [ACVRL1_Y375_M376V],0.477
11,SVNCTYSPALN [TP53_Y126_T123N],0.77
12,EHLNRYINDTF [TTLL10_Y446_S448N],1.08
13,EIIPFYGMSTY [FNDC3B_Y175],0.768
14,GVTLLCFGRFN [ADGRD1_Y85_Y85C_YF],1.09
15,FKDGQYWIRGQ [ACSF3_Y466_R471Q],0.507
16,QRRLVYFERGA [RYR1_Y245_G248R_YF],0.811

# Molecular target: Fes (UniProt P07332)
# Sequence (P07332 whole entry, looked up): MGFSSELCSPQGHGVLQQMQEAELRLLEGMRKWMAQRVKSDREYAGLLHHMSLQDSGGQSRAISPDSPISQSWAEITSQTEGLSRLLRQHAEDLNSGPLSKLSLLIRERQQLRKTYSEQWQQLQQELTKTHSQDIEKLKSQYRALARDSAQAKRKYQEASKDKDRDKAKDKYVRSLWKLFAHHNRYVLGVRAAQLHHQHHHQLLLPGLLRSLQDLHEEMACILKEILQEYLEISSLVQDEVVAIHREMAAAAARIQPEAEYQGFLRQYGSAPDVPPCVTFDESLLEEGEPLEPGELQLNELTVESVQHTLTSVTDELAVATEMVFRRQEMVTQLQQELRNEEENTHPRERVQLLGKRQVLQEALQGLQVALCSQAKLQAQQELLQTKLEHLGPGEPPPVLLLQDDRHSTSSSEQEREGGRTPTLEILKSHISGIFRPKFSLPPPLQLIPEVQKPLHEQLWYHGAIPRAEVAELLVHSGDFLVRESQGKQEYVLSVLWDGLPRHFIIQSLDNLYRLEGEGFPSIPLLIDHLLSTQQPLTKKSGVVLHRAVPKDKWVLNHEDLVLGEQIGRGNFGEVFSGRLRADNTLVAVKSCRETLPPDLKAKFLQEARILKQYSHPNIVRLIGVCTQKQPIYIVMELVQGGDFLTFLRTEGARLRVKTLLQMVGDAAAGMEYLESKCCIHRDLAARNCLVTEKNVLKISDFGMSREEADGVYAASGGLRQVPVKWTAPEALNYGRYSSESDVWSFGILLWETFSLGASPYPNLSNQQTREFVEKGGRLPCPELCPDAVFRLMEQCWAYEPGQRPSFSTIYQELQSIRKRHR
# Assay: as above
row,Sequence,phosphorylation enrichment
1,PVQAAYQKVVD [HBB_Y131_A136D],1.01
2,GEIQEYGAPSD [ABCC1_Y1508],1.05
3,KRIETYFSKNY [PLP1_Y50_L46R],0.748
4,LRTAVYHEILI [CREBBP_Y1450],3.73
5,GGDGSYVSVPL [TNNI3K_Y425_S430L],0.599
6,ADRARYSAFGG [RBM4_Y361],0.523
7,FQKDVYDIPPS [NEDD9_Y177_YF],0.681
8,GEDEPYAEPYA [APBA1_Y183_S184A],1.53
9,FSQQTYCRVSN [ABCD1_Y180_Y181C],0.981
10,TRSYKYLLLSM [NF1_Y491],0.832
11,MSNSAYVKREV [SCN1A_Y1694_F1692S],0.562
12,EIEFLYNENTV [IARS1_Y680],1.26
13,AIKSFYAALID [RYR1_Y2426_M2423K],0.981
14,IVRSLYEDPED [VHL_Y185_L188P],1.02
15,TEFIQYMRRKN [MAX_Y73_YF],0.629
16,NSAFFYKTAEE [CCT6B_Y250_G247A],1.23
17,SYCYRYCCAAR [SUMF1_Y344_R345C],0.976

row,Sequence,phosphorylation enrichment
1,TLSGIYQFNIA [FOXL2_Y81_I84N_YF],0.741
2,NDFGNYNQQPS [HNRNPA2B1_Y306],0.85
3,VKYLGYPPPEI [KDR_Y357_A352V],0.719
4,DFGSGYPNDPK [RNASEH2A_Y210_YF],0.678
5,PGVNYYFRVSA,1.08
6,SWSTSYSGYRY [NKAPL_Y91],0.925
7,QTPVLYTMLDH [MPZ_Y220_A221T],1.14
8,LAARFYNWVSF [FLT4_Y1231_YF],1.55
9,ATARPYRPFII [LRP5_Y1528_YF],0.61
10,VGTKRYVAPEV [ACVRL1_Y375_M376V],0.658
11,SVNCTYSPALN [TP53_Y126_T123N],1.01
12,EHLNRYINDTF [TTLL10_Y446_S448N],1.08
13,EIIPFYGMSTY [FNDC3B_Y175],0.875
14,GVTLLCFGRFN [ADGRD1_Y85_Y85C_YF],1.53
15,FKDGQYWIRGQ [ACSF3_Y466_R471Q],0.876
16,QRRLVYFERGA [RYR1_Y245_G248R_YF],0.827
